These results are taken from publication PMC6693564, “RGG-motif self-association regulates eIF4G-binding translation repressor protein Scd6” (RNA Biology, 2019).

For one data set, the target named is T1, GSTScd6 (recombinant) (yeast, UniProt P45978 1-349).
T1 construct: Scd6, yeast; also called full-length GSTScd6; source: E. coli BL21, purified (glutathione sepharose)
T1 sequence (looked up): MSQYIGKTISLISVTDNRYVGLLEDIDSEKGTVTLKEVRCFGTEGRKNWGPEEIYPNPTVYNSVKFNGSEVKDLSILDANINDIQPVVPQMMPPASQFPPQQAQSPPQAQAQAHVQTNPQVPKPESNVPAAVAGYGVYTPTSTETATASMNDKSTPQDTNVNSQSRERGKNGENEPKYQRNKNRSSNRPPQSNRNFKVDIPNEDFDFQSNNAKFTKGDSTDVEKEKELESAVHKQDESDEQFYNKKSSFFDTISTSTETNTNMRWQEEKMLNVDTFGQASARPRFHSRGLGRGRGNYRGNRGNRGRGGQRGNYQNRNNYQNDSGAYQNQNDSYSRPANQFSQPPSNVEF
Briefly: pull-down; 450 nM purified proteins with glutathione sepharose beads, 2 h at 4°C, 50mM HEPES pH7, 100mM NaCl, 1mM DTT, 2mM MnCl2, 2mM MgCl2, 1% Triton-X100, 10% glycerol, 0.25mg/ml RNase A, 10mg/ml BSA; GST fusion as bait; anti-FLAG blot; for Figure 5e Scd6FLAG first incubated with Hmt1 with or without SAM. Particulars: both partners purified.

Data set [1] concerns the molecule itself. Briefly: SEC; Sephacryl S-200 HR (45 ml, manual), 1 mg protein in 100 µl loaded, 20mM HEPES-KOH pH7.6, 100mM KCl, 10% glycerol; standards 200, 150, 66, 29 kDa.
Data set [2] addresses T2, HisSbp1FLAG (recombinant) (yeast, UniProt P10080 1-294).
T2 construct: Sbp1, yeast; also called full-length Sbp1FLAG; source: E. coli XL1-Blue, purified (Ni-NTA)
T2 sequence (looked up): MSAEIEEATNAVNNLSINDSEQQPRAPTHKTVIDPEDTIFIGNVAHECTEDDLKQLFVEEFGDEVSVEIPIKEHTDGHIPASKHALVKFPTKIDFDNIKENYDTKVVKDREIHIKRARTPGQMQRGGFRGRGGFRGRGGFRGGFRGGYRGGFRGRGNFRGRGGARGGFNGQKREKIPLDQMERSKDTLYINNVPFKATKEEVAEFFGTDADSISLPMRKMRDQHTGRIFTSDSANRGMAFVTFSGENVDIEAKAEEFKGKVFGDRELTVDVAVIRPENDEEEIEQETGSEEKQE
Briefly: pull-down; FLAG pull-down of purified Sbp1FLAG with purified Sbp1GFP or Sbp1GFPΔRGG in the presence of RNase A; 450 nM proteins; blots with anti-GFP and anti-FLAG. Particulars: both partners purified.

B1: in vitro methylated Scd6FLAG (natural protein, yeast, UniProt P45978 1-349, looked up)
chain: MSQYIGKTISLISVTDNRYVGLLEDIDSEKGTVTLKEVRCFGTEGRKNWGPEEIYPNPTVYNSVKFNGSEVKDLSILDANINDIQPVVPQMMPPASQFPPQQAQSPPQAQAQAHVQTNPQVPKPESNVPAAVAGYGVYTPTSTETATASMNDKSTPQDTNVNSQSRERGKNGENEPKYQRNKNRSSNRPPQSNRNFKVDIPNEDFDFQSNNAKFTKGDSTDVEKEKELESAVHKQDESDEQFYNKKSSFFDTISTSTETNTNMRWQEEKMLNVDTFGQASARPRFHSRGLGRGRGNYRGNRGNRGRGGQRGNYQNRNNYQNDSGAYQNQNDSYSRPANQFSQPPSNVEF
modifications: arginine methylation by Hmt1 in vitro (stained by mono-methylarginine specific antibody); sites not given
notes: Scd6, yeast; Same protein as m4 after methylation; source: E. coli BL21, purified, then methylated in vitro by incubating with Hmt1 and SAM
On to B1, for which, in the data set with GSTScd6 (recombinant), the binding result is “binds”.

B2: HisScd6FLAG (recombinant) (natural protein, yeast, UniProt P45978 1-349, looked up)
chain: MSQYIGKTISLISVTDNRYVGLLEDIDSEKGTVTLKEVRCFGTEGRKNWGPEEIYPNPTVYNSVKFNGSEVKDLSILDANINDIQPVVPQMMPPASQFPPQQAQSPPQAQAQAHVQTNPQVPKPESNVPAAVAGYGVYTPTSTETATASMNDKSTPQDTNVNSQSRERGKNGENEPKYQRNKNRSSNRPPQSNRNFKVDIPNEDFDFQSNNAKFTKGDSTDVEKEKELESAVHKQDESDEQFYNKKSSFFDTISTSTETNTNMRWQEEKMLNVDTFGQASARPRFHSRGLGRGRGNYRGNRGNRGRGGQRGNYQNRNNYQNDSGAYQNQNDSYSRPANQFSQPPSNVEF
notes: Scd6, yeast; predicted molecular mass of the purified protein about 41.5 kDa; also called purified Scd6; source: E. coli BL21, purified (HisTrap HP, HiTrap Heparin HP)
Turning to B2, the “stoichiometry N” value in data set [1] turned out to be 2.

B3: HisSbp1GFP (recombinant) (natural protein, yeast, UniProt P10080 1-294, looked up)
chain: MSAEIEEATNAVNNLSINDSEQQPRAPTHKTVIDPEDTIFIGNVAHECTEDDLKQLFVEEFGDEVSVEIPIKEHTDGHIPASKHALVKFPTKIDFDNIKENYDTKVVKDREIHIKRARTPGQMQRGGFRGRGGFRGRGGFRGGFRGGYRGGFRGRGNFRGRGGARGGFNGQKREKIPLDQMERSKDTLYINNVPFKATKEEVAEFFGTDADSISLPMRKMRDQHTGRIFTSDSANRGMAFVTFSGENVDIEAKAEEFKGKVFGDRELTVDVAVIRPENDEEEIEQETGSEEKQE
notes: Sbp1, yeast, wild type; source: E. coli XL1-Blue, purified (Ni-NTA)
With B3, the binding result in data set [2] is reported as “binds”.
